Experimental data as given in patent EP4793287A1, “TUMOR MICROENVIRONMENT SPECIFICALLY ACTIVATED CD47 ANTIBODY” (Affinity (Shanghai) Biopharmaceutical Co., Ltd., priority 2023, dated 2025).

What was measured:
human CD47 antigen = human CD47 antigen (Homo sapiens, UniProt Q08722); assay: Affinity measurement by SPR (BIAcore T200); conditions: 25 °C, 1:1 binding model
Description: The binding affinity between the antigen and the antibody was measured using a BIAcore T200 instrument. The binding strength between the CD47 antigen and the antibody was determined using a CM5 chip (purchased from Cytiva, Cat# 29149603) via amine coupling. First, the CD47 antigen was immobilized onto the CM5 chip. According to the instructions of the Amine Coupling Kit (purchased from Cytiva, Cat# BR100050), using PBST as the running buffer, NHS and EDC were mixed and injected to activate the chip for approximately 420 seconds. The CD47 antigen was diluted to 10 µg/mL in 10 mM sodium acetate (pH 5.5) and injected to achieve an immobilization level of 141.2 RU. Finally, the remaining activated sites were blocked with 1 M ethanolamine (pH 8.5). Subsequently, the affinity of the antibody for the CD47 antigen was determined using the multi-cycle kinetics method. In each cycle, a single concentration of the antibody protein was injected, and the association and dissociation processes between the antibody and the antigen protein were recorded. Finally, the chip was regenerated with Glycine-HCl (pH 1.5). […] Data were analyzed according to a 1:1 binding model, and the kinetic parameters of antibody-antigen binding, including the association rate constant (Ka), dissociation rate constant (Kd), equilibrium dissociation constant (KD), and maximum binding signal (Rmax), were fitted.

[1] = target: T1, binding of CD47 on Raji cells to SIRPα (Homo sapiens, UniProt Q08722); assay: Blocking of SIRPα binding on Raji cells (FACS); format: cell-based
T1 construct: endogenous in cells; host or cells: Raji
Description: The required cell line, Raji (cultured in RPMI-1640 (ATCC Modification, Gibco, Cat# A10491-01) + 10% FBS (BI, Cat# 04-001-1A) + 1× P/S), was expanded to the logarithmic phase. Cells were collected and pipetted to create a single-cell suspension, followed by centrifugation and removal of the supernatant. The cells were resuspended in FACS buffer (PBS + 2% FBS) and counted, and the cell density was adjusted to 2×10^6/ml. 100 µl/well of this suspension was added to a 96-well plate (Corning, Cat# 3799). After centrifugation and removal of the supernatant, 100 µl/well of the antibody sample to be tested (CD47 Antibodies at an initial concentration of 200 nM, with 5-fold gradient dilutions and 8 dilution points, mixed with an equal volume of Human SIRP alpha, mFc (DIMA Biotech, Cat# PME100531) at 16 µg/ml) was added, mixed with the cells, and incubated at 4 °C for 1 hour. Cells were washed by centrifugation with FACS buffer for three times, then added with 100 µl/well of Goat F(ab')2 Anti-Mouse IgG-Fc (PE), pre-adsorbed (abcam, Cat# ab98742, 1:200 dilution) and incubated at 4 °C for 1 hour. After three washes with FACS buffer by centrifugation, the cells were resuspended in 200 µl/well of FACS buffer and analyzed using FACS (BECKMAN COULTER, CytoFLEX). Data were fitted and the results were analyzed using software (GraphPad Prism 8).

[2] = system: Human Burkitt's lymphoma RAJI cells; assay: In vivo efficacy, subcutaneous RAJI transplanted tumor model; parameters: species or system NOD-SCID mice; conditions: for T/C ratio / TGI inhibition rate: after 31 days of treatment
Description: Human Burkitt's lymphoma RAJI cells were subcutaneously transplanted into NOD-SCID mice to establish an in vivo model. RAJI cells were cultured according to standard culture conditions and were collected during the exponential growth phase for counting. Each mouse was inoculated on the right flank with 1×10^7 human Burkitt's lymphoma RAJI cells (suspended in 0.1 ml of basal medium). After inoculation, when the tumors grew to 80-114 mm^3 (7 days post-tumor implantation), the mice were randomly grouped based on body weight and tumor volume. The experimental groups were divided as follows:
Treatment was started on the day of grouping. Mice were weighed, and tumor volumes were measured twice a week. Tumor volume was calculated using the formula: tumor volume = 1/2 × length × width × width (mm^3). The tumor growth inhibition rate TGI (%) was calculated as [1 - (Tt - T0) / (Ct - C0)] × 100%. The tumor inhibition rate T/C (%) was calculated as (Tt/T0) / (Ct/C0) × 100%. T0 represents the tumor volume of the test antibody group at the time of grouping; Tt represents the tumor volume of the test antibody group at each measurement; C0 represents the average tumor volume of the PBS group at the time of grouping; Ct represents the average tumor volume of the PBS group at each measurement.

T1 sequence (Q08722 19-323): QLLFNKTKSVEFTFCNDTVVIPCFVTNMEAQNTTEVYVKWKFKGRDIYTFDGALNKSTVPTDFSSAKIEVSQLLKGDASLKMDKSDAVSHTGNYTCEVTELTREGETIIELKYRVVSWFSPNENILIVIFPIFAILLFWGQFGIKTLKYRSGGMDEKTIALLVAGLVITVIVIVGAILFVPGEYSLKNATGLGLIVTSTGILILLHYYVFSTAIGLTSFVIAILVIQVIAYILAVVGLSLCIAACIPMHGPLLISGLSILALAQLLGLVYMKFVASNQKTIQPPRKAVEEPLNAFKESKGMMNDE
Chain of human CD47 antigen (Q08722 19-323): as above

B1: CD47 TMEAbody: CD47 TMEAbody conjugated with PEG of approximately 20K molecular weight (i.e., PEG20K) (conjugate)
VH: QQQLEESGGGLVKPEGSLTLTCTASGFSFSSGYDMCWVRQAPGRGLEWIACIYTRSSGGTCYASWAKGRFTISKTSSTVDLRMTSLTAADTATYFCAGGRSSYRLNLWGQGALVTVSS
VL: DVVMTQTPSPVEAAVGGTVTIKCQASQSISNELSWYQQKPGQPPKLLIYRASTLESGVSSRFKGSGSGTEFTLTISDLECADAATYYCQSTFYGDYGNAFGGGTEVVVK
In the case of B1, the Ka (human CD47 antigen) is reported as 24400 M⁻¹ s⁻¹, the “activity in blocking the binding of CD47 on Raji cells to SIRPα” value ([1]; after the CD47 TMEAbody was activated) is reported as “restored” and the “activity in blocking the binding of CD47 on Raji cells to SIRPα” value ([1]; not activated) is reported as “significantly reduced”. The “Tumor Volume” value ([2]; 0.3 mg/kg, D0) was 94.56 mm^3, the “Tumor Volume” value ([2]; 0.3 mg/kg, D3) was 123.83 mm^3 and the “Tumor Volume” value ([2]; 0.3 mg/kg, D7) was 147.44 mm^3. The “Tumor Volume” value ([2]; 0.3 mg/kg, D10) was 232.04 mm^3, the “Tumor Volume” value ([2]; 0.3 mg/kg, D14) was 358.82 mm^3 and the “Tumor Volume” value ([2]; 0.3 mg/kg, D17) was 511.34 mm^3. For the same molecule, the “Tumor Volume” value ([2]; 0.3 mg/kg, D21) was 849.95 mm^3, the “Tumor Volume” value ([2]; 0.3 mg/kg, D24) was 1156.48 mm^3 and the “Tumor Volume” value ([2]; 0.3 mg/kg, D28) was 1887.63 mm^3. The “Tumor Volume” value ([2]; 0.3 mg/kg, D31) was 2532.90 mm^3, the T/C ratio ([2]; 0.3 mg/kg) was 93.73% and the TGI inhibition rate ([2]; 0.3 mg/kg) was 6.45%. The “Tumor Volume” value ([2]; 1 mg/kg, D0) was 94.25 mm^3, the “Tumor Volume” value ([2]; 1 mg/kg, D3) was 100.17 mm^3 and the “Tumor Volume” value ([2]; 1 mg/kg, D7) was 116.36 mm^3. The “Tumor Volume” value ([2]; 1 mg/kg, D10) was 162.08 mm^3, the “Tumor Volume” value ([2]; 1 mg/kg, D14) was 214.12 mm^3 and the “Tumor Volume” value ([2]; 1 mg/kg, D17) was 307.27 mm^3. The “Tumor Volume” value ([2]; 1 mg/kg, D21) was 384.91 mm^3, the “Tumor Volume” value ([2]; 1 mg/kg, D24) was 485.51 mm^3 and the “Tumor Volume” value ([2]; 1 mg/kg, D28) was 679.76 mm^3. The “Tumor Volume” value ([2]; 1 mg/kg, D31) was 890.40 mm^3, the T/C ratio ([2]; 1 mg/kg) was 33.06% and the TGI inhibition rate ([2]; 1 mg/kg) was 69.46%. For the same molecule, the “Tumor Volume” value ([2]; 3 mg/kg, D0) was 93.15 mm^3, the “Tumor Volume” value ([2]; 3 mg/kg, D3) was 91.90 mm^3 and the “Tumor Volume” value ([2]; 3 mg/kg, D7) was 81.07 mm^3. The “Tumor Volume” value ([2]; 3 mg/kg, D10) was 87.74 mm^3, the “Tumor Volume” value ([2]; 3 mg/kg, D14) was 92.16 mm^3 and the “Tumor Volume” value ([2]; 3 mg/kg, D17) was 91.91 mm^3. The “Tumor Volume” value ([2]; 3 mg/kg, D21) was 129.68 mm^3, the “Tumor Volume” value ([2]; 3 mg/kg, D24) was 117.69 mm^3 and the “Tumor Volume” value ([2]; 3 mg/kg, D28) was 125.24 mm^3. For the same molecule, the “Tumor Volume” value ([2]; 3 mg/kg, D31) was 120.05 mm^3, the T/C ratio ([2]; 3 mg/kg) was 4.51% and the TGI inhibition rate ([2]; 3 mg/kg) was 98.97%. For the same molecule, the tumor growth inhibition ([2]; 0.3-3 mg/kg) was “significant tumor growth inhibition” and the “changes in body weight” value ([2]; during the treatment period) was “No significant changes in body weight”.
